According to the DeepSol protein solubility set:

Assay: soluble on expression in E. coli; label from the status in PepcDB or PDB records

Row | Sequence | soluble on expression in E. coli
1 | MSLSSVRDKYNFNSEWLLYVGDTPEAKEVRFQDTDWKKVTLPRPFNEDEAFRLSIEQLTDTVMWYRKHFRLPADSKNKKVFVEFEGVRQGADFYINGEYIGLHENGAMAVGFDLTPYIKYGQENVMAVRIDNNWNYKERATGTKYQWSDRNFNANYGGIPKNVWLHVTDKLYQTLPLYSNLKTTGVYIYAEDIRVKSRKAVVHAESEIKNEYNRDKKVAYKVEVFDRDGKSIKSFEGTQTVVKPGETATLEASAEIDGLHFWSWGYGYLYTVKTSLWVDGRKVDEVATRTGFRKTRFGKGMIWLNDRVIQMKGFAQRTSNEWPGVGMSVPAWLSDYSNGLMVEDNANLVRWMHITPWKQDIESCDRVGLIQAMQAGDAEKDREGRQWEQRTELMRDAIIYNRNNPSILFYECGNESISREHMIEMKAIRDKYDPHGGRAIGSREMLDIREAEYGGEMLYINKSKHHPMWAMEYCRDEGLRKYWDEYSYPYHKNGEGNNSFRSAMTNKVQKKVDARAYNHNQDSFTIENVIRWFDYWRERPGTGDRVSSGGVKIIFSDTNTHYRGVENYRRSGVTDAMRIPKDPFYAHQVMWDGWVDIENPRIHIVGHWNYKEDVVKPVYVVSSAEKVELFLNGKSLGNGQRDYHFLYTFKDVAFVPGKLEAVGYDKNGKECCRAELQTAGKPEQIKLSVIQSPKGWKADGADMVLLQVEVMDKDGRRCPLANDLIHFDVEGPAEWRGGIAQGKDNYILSKDLPVECGINRALIRSLTTPGAVRITAKADGLQSAEISLSSAPVEVKNGLSNYIPGDELEGRLTRGETPLTPSYKDTKVDVNILSAVAGANQDETIKSFDDNELSEWKNDGRLNSAWITYSLERAARVDEICMKLTGWRLRSYPLEIYAGDELIWSGETEKSLGYIHLNVKPVLTNEITIRLKGASKEGDGFGQIVEVAAPAAGELDLFKAKNGDKTNHELRIVEIEFKENLWQEGHHHHHH | soluble
2 | MSLHVKVIVFGGSGFLGSHLVNRLDADEMVYFSLEKGNSVTRKDAKWVSGDVTDYSKVAEAMKDVDVAIFAVEDWNADEKRNREILLDGIKNVVNAVKANNTEQKVVSFSIINHPSYPLEFFRTKRLVEDNTRVLKNGLVVRLSFLFGEGDHFTDRFRKLSERVGHLSPEGNLAPVYVDDVVKVVNSILKREGVYDICSNDNLPLIKIVNYIRKMNGKKEIGETKLEKAISAVVETGLFAEYEAHLLFQDYYRETNILDRYVKDPLSYLDFLRGISVTHTTEGHHHHHH | soluble
3 | MKEYRLTDWLPTTKKEVELRGWDELDVILFSGDAYVDHPSFGAAVIGRILEAEGLKVAIIPQPNWRDDLRDFRKLGRPRLFFGISAGSMDSMVNKYTANKRLRSEDAYTPDGRPDMRPEYPSIVYSQILKRLYPDVPVILGSIEASLRRLSHYDYWQDKVQKSILCDSGADLLIYGMGEKPIVELTRKMKELLPAEDASLTAGELKKIAGTIPQTAYLCRATEWTPAADDIQLYSHEECLADKKKQASNFRHIEEESNKYAASRITQEVDNKVVVVNPPYPPMSQEELDHSYDLPYTRLPHPKYKGKRIPAYDMIKFSVNIHRGCFGGCAFCTISAHQGKFIVSRSKKSILNEVKEVMQLPDFKGYLSDLGGPSANMYQMKGKDEAICKKCKRPSCIHPKVCPNLNSDHCPLLDIYKAVDAIPGIKKSFIGSGVRYDLLLHQSKDAATNRSTAEYTRELIVNHVSGRLKVAPEHTSDRVLSIMRKPSFEQFETFKKIFDRINREENLRQQLIPYFISSHPGCKEEDMAELAVITKRLDFHLEQVQDFTPTPMTVATEAWYSGFHPYTLEPVFSAKTQREKLAQRQFFFWYKPEERKNILNELRRIGRQDLIDKLYGKRNK | not soluble
4 | MKPVPTYVQDKDESTLMFSVCSLVRDQAKYDRLLESFERFGFTPDKAEFLAADNREGNQFHGFSWHKQMLPRCKGRYVIFCHEDVELVDRGYDDLVAAIEALEEADPKWLVAGVAGSPWRPLNHSVTAQALHISDVFGNDRRRGNVPCRVESLDECFLLMRRLKPVLNSYDMQGFHYYGADLCLQAEFLGGRAYAIDFHLHHYGRAIADENFHRLRQEMAQKYRRWFPGRILHCVTGRVALGGGWYEAR | soluble
5 | VSQVHRILNCRGTRIHAVADSPPDQQGPLVVLLHGFPESWYSWRHQIPALAGAGYRVVAIDQRGYGRSSKYRVQKAYRIKELVGDVVGVLDSYGAEQAFVVGHDWGAPVAWTFAWLHPDRCAGVVGISVPFAGRGVIGLPGSPFGERRPSDYHLELAGPGRVWYQDYFAVQDGIITEIEEDLRGWLLGLTYTVSGEGMMAATKAAVDAGVDLESMDPIDVIRAGPLCMAEGARLKDAFVYPETMPAWFTEADLDFYTGEFERSGFGGPLSFYHNIDNDWHDLADQQGKPLTPPALFIGGQYDVGTIWGAQAIERAHEVMPNYRGTHMIADVGHWIQQEAPEETNRLLLDFLGGLRP | soluble
6 | MAHHHHHHMRANPIERRKERETALSVRQRELEELRQRKAQLGEELGMELSALEGDNLAAAFPVIQYCGSRPKKDAKKIPVESLGSVMNQFEIAIKAISQNNRDIEQQITDLNRTIGVEAQRFTKLKRHSKELADATGVSLDPNAVQHLAGKSRDGEDCSGGLKELEETTVVLEERKALVEKEIRAARQLVKKKEEAVLAMSSALESRQEEIDQLNRLYNDIRVVDRDIKCEKETLREIISEHDIVDTKLNEAIERNVSRTRLLIEQGINEIKTEIADSVSVSRRGQERVMKAQEFRIDQLEKRLDCINKALKNNHLTRDVEAIVSHKWAAAGDALVAATPDESMYDIEAIIPPQERCHPAIYNLLLTEKERLARRISLLGIIAKEKKEVIDALACKAEALARECQQAIQELDHVASAAAYEEEMQRVEAMEYIQKQRLHYSDLFKEMWKLKTKNQGPLWRAY | not soluble
7 | MYEAIGHRVEDGVAEITIKLPRHRNALSVKAMQEVTDALNRAEEDDSVGAVMITGAEDAFCAGFYLREIPLDKGVAGVRDHFRIAALWWHQMIHKIIRVKRPVLAAINGVAAGGGLGISLASDMAICADSAKFVCAWHTIGIGNDTATSYSLARIVGMRRAMELMLTNRTLYPEEAKDWGLVSRVYPKDEFREVAWKVARELAAAPTHLQVMAKERFHAGWMQPVEECTEFEIQNVIASVTHPHFMPCLTRFLDGHRADRPQVELPAGV | soluble
8 | MGSDKIHHHHHHMNISTIVSNLKDLILEVRAPYDLEITGVSNHSSKVKKGDLFICRRGEKFDSHEIIPEVMEKGAVAVVVEREIDLDFPYIQVFDSRYFEAKVASLFFEDPWKDVLTFGVTGTNGKTTTTMMIYHMLTSLGERGSVLTTAVKRILGNSYYDDITTPDAITILSAMKENREGGGKFFALEVSSHALVQQRVEGVRFDVGIFTNISRDHLDFHGTFENYLKAKLHLFDLLKDDGVAVLNESLADAFNRKSRKITFGTSKNADYRLGNIEVSWEGTQFVLETPDGLLKVFTRAIGDFNAYNAAAAIAALHQLGYDPKDLASSLETFTGVEGRFEVVRGAKKIGLNVVVDFAHSPDALEKLLKNVRKISQGRVIVVFGAGGNSDRGKRPMMSEVASKLADVVILTTDDPRGEDPEQIMEDLIKGIDKRKPYLVLFDRREAIETALTIANRGDSVVIAGRGHERYQIIDEEKKVPFQDREVVEEIIRDKLKGRKYAQ | not soluble
9 | MDTMAKINQFRDERNWRPHHNEKDLALSICLEAAELLELFQWKTAEEGIKQEERIKEELADVLIYSYMMADNLGFDLDEIIEEKLKKNALKYPVPH | not soluble
10 | LAQPAMAMVGSRNATPQGLANADAFAEAASNAGFCIISGLAQGIDTAAHQGGLRGASSSMAIVGTGLDLVYPSRNHELAHKLANEGGLISEFPLGTPAISRNFPRRNRIISGMCHACLVVEATLYSGSLITARLALEQGREVMAIPGSIHSPLSKGCHALIKQGAKLVENIQDILDE | not soluble
11 | MGSDKIHHHHHHMNPDFSYEKKKIEFSSGYIFKGKHYRCSIIKYASLYKNCTKGTENVEIYHFSPRERSVGSILILHGLGTVNIPFLFWMGSHLASAGLQASVMILPGNYTRTASGSTSGKDFFSPDLRRLTAFWEQAVVDTMTTIDLLQQENIWWDNNCLFGYCLGGMVSTIVSAIDKRINDLILMTVGGNIAKIIWQSPVLKSIRLSLRSGSGEEGYLNDEKRLNARFKEDSLAVKKMKSASELLESDLHPLFKIDPLAYARFNDSEKVTMIEALFDKALPVQTRKQLWEAFGRPKRYIVPIGHVSWFPFEYALGKYILKKLGIKEARKKMRLLESTKPTE | not soluble
12 | MAHHHHHHMQPMVLPYVDRKPPISKVMDARVLVWRESERMLRNGEGAAECSYAQKLQVLRSQQLADARKYMDTSAAMRSVKPVLATSSVDADDDDEFCRKRSRESEGPSVDEIRRFEGKLGETLALELTLWSLRRGSHGGVRSQRYTTALHALQDTQKLLRKTLQQMEEINALRFLEQQQFLKVNSEKARLLHVRLRNVRALENILRGNGKRRGSTLLATLE | not soluble
13 | MSLKYQLRFGGEGGQGVITAGEILAEAAIKEGRQAFKASTYTSQVRGGPTKVDIIIDDKEILFPYAVEGEVDFMLSTADKGYKGFRGGVKEGGIIVVEPNLVHPESEDYKKWQIFEIPIITIAKDEVGNVATQSVVALAIAAYMSKCIDLDVLKETMLHMVPAKTRDANAKAFDLGVKYATQAKPHEGHHHHHH | soluble
14 | MKFPGQRKSKHYFPVHARDPLVIQAQENKKMSRTHIIGIDQTLVDIEAKVDSDLIERYGLSKGHSLVIDDHAAEALYNELKEQRLITNEYAGGTIGNTLHNYSVLADDRSTLLGVMSQDIKIGSYGYRYLCNTSSRMDLNYLQGVDGAIGRCFALITEDGERTFAISEGQMNQLRPDSIPEKIFASASALVITAYLVRCKEGDPMPEATMRAIEYAKKYDVPVVLTLGTKFVIQDDPKFWQEFLRDHVTVVAMNEDEALALTGESDPLAASDKALDWVDLVLCTAGPVGLFMAGYTEDSAKRETSLPLLPGSVPEFNRYEFSRPARKESCINPIRVYSHISPYMGGPEKIKNTNGAGDAALSALLHDMAANKYHKENVPNSSKHQHEFLTYSSFSQVCKYSNRASYEVLAQHSPRLSRGLPEREDSLEEAYWER | not soluble
15 | DAMNVMPVLAEIRERKAAHRAGMPSHVINFTLLPMNAVDMAHLQATLGNGPIQLHSRGYGSCRVLATATRDVWSVQFLNAMDTMILDTLEIGDVPAAACAADEDFSDSAERLGEIIEAYFE | not soluble
16 | HMSNFTGLKVLVMDENGVSRMVTKGLLVHLGCEVTTVSSNEECLRVVSHEHKVVFMDVCMPGVENYQIALRIHEKFTKQRHQRPLLVALSGNTDKSTKEKCMSFGLDGVLLKPVSLDNIRDVLSDLLEPRVLYEGM | soluble
17 | SASAGGEDCESPAPEADRPHQRPFLIGVSGGTASGKSTVCEKIMELLGQNEVEQRQRKVVILSQDRFYKVLTAEQKAKALKGQYNFDHPDAFDNDLMHRTLKNIVEGKTVEVPTYDFVTHSRLPETTVVYPADVVLFEGILVFYSQEIRDMFHLRLFVDTDSDVRLSRRDKEVCRCDHPTRSGQYGCHQPDRAAHPGHSEW | soluble
